For this series, the target named is T1, DBINO domain of dIno80 (Drosophila melanogaster, UniProt Q9VDY1 228-484).
T1 sequence: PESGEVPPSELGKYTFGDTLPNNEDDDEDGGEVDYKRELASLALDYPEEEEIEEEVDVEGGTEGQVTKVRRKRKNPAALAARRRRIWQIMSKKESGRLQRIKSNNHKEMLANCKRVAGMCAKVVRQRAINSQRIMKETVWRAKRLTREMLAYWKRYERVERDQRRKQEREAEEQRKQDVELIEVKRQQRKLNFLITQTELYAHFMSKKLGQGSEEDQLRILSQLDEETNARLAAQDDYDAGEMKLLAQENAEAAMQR
The series can be described thus: fluorescent intercalator displacement.

B1: Hs.con (3 copies of Ino80 motif, 33-mer) (dsDNA)
DNA 1: CCCCGTCAGCCCCCCGTCAGCCCCCCGTCAGCC
DNA 2: GGCTGACGGGGGGCTGACGGGGGGCTGACGGGG
Broadly, the Kd is the equilibrium constant for the complex coming apart. Lower therefore signals tighter binding. For the molecule B1, the Kd was found to be 10 µM.

For the origin of these results see paper doi:10.1101/519959.
